T1: ADP372
T1 chain: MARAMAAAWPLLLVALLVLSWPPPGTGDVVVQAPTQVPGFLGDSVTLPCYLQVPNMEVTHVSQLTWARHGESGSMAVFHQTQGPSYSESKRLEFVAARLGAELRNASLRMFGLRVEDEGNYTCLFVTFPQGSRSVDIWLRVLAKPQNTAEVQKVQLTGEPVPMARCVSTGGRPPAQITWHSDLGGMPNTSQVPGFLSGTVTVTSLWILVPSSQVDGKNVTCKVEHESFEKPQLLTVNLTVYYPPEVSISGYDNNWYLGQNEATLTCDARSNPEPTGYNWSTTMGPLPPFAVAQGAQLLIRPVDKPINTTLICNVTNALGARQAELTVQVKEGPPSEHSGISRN

T2: ADP150
T2 chain: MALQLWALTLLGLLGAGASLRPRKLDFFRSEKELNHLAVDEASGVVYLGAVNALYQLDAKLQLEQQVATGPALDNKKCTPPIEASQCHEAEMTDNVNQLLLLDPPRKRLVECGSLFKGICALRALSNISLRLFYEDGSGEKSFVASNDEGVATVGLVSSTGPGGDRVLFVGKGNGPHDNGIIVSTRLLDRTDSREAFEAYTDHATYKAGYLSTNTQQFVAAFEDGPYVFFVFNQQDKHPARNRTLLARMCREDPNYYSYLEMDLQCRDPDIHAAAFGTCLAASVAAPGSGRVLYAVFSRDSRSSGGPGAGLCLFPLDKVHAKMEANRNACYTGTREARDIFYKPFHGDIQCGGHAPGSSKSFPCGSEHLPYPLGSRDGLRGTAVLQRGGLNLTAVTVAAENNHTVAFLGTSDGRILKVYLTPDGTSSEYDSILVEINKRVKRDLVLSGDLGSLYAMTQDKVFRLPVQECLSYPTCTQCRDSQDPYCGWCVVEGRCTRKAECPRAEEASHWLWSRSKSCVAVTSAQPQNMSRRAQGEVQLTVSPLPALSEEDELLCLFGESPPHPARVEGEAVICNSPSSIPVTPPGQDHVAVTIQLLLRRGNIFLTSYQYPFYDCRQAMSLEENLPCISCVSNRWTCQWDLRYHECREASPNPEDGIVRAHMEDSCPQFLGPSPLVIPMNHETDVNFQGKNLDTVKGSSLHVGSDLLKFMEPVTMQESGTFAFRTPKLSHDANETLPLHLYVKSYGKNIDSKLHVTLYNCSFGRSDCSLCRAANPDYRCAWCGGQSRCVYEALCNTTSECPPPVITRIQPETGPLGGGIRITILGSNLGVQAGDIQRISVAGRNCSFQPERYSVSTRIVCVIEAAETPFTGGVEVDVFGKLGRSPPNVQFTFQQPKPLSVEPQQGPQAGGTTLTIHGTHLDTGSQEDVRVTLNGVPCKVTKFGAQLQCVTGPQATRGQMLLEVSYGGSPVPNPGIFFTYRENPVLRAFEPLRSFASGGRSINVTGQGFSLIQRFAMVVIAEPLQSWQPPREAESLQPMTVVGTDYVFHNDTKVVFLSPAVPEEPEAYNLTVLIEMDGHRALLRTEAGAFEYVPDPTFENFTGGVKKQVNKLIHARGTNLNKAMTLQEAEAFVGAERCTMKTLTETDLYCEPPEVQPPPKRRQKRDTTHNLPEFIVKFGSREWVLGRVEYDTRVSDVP

T3: ADP103
T3 chain: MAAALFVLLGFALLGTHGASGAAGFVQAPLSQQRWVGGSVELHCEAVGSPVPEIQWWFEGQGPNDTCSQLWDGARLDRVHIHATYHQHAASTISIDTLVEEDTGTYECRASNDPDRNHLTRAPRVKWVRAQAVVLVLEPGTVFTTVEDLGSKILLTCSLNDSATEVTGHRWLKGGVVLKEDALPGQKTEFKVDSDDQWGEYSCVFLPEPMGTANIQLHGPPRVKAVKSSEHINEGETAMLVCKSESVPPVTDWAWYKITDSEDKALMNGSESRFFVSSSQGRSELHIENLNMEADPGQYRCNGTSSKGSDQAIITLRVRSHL

T4: ADP133
T4 chain: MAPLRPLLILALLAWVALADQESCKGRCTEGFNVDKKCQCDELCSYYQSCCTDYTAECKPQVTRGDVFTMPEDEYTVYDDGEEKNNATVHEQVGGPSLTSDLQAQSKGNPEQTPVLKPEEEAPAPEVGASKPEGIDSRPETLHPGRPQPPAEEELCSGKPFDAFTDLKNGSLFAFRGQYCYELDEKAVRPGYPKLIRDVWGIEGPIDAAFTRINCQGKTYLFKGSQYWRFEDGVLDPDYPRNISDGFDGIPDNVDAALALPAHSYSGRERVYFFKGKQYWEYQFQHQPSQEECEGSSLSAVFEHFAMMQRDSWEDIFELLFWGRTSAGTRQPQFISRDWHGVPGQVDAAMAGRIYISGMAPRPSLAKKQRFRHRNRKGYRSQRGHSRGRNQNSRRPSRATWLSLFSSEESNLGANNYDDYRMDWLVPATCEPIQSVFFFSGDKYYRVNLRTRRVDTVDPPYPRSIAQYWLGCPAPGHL

T5: ADP315
T5 chain: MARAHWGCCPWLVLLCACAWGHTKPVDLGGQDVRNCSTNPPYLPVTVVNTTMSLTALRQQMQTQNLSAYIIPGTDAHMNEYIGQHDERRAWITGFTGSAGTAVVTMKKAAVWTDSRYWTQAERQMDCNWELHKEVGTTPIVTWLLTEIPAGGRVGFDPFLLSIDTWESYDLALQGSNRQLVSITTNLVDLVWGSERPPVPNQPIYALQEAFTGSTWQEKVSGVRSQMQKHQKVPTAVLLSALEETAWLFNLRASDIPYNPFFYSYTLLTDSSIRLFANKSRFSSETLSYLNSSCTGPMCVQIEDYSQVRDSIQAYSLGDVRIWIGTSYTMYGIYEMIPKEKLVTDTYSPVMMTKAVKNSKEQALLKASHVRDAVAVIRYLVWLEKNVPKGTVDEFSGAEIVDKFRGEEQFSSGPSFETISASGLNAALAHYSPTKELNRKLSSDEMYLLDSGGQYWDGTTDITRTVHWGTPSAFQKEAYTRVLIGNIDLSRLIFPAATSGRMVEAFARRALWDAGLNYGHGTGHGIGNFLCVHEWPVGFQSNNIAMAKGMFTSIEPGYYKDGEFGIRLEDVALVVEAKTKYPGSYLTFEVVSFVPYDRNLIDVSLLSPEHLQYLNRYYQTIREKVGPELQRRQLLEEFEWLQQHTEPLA

B1: ADP178 (protein)
chain: SDTFRVFEDFDVRRKNKIWCCNLNHEKSYFHNKAINTAYKNRVLKESILLNLDLDMKKYKDNIITRKKTPENIYKEIYENNYEMKYDEDIPNNMAEEKRDEKEVIEHLEIDEKNGKQYKSDINKPVSLSHLKQYKNIYVNNNNKINKKKSIDKHLPSYNLERKNNKYLNFLLVDNRNEAYTFMVPMKFYINHEMYNIADEEYNKLMEDNSVDVYLNNILVEYKYENFEIKEGEVDGEVEGEGEVEGEVEGEVKGKVVEGIENNMNEEEKYNKDNKDKENQINSNGQDENTEFQENDNNDAVIMKYT
modifications: bait human Fc-tagged dimer; N-glycosylation sequons mutated in Plasmodium baits
B2: ADP173 (protein)
chain: EVESSDSTSFLNLISGQSSSNSDDTVSSSDSRGVVASVSGTVDSDVSRTDSTGNVNSKNSELSETRQNSVEQNNNANSADNSIKIKSAFLKENVGVKITGPCDEGFGLVMVPHIIINVDTRNTDIQLGKKSSEINYGIKLRKKGKDEYEEKVGIDLLKNVCETGKNFKFVAYIKGDELIIKWKVIEEGNIPIDIKKFKIKRMSPPITSIQVFSSMSDEKSFVLENKNYVVTNNMPEKCEALATNCFLSGNIDIEKCYQCSLLVENDAKSDVCYNFISRENKEKLNEERFKVKGSTEYEESVESELKGAIDLLISSFYKSDGENGENVLISFEDLNSALEDDIINFCSLLKLVDLSGTFMNHQIGTTADAFNNIVKLLKEHKEEDEFVLRTKLRNPALCMKNVDDWVKSRCGLLTSDDSYVVIKKNSDTNGKNENNEANDEEYDGVIDLSTNENGNVKSIQFNDDIYCNDDYCNRWKNENNCISKIGVEDQGNCASSWAFASKLHFETLRCMKGYDHLGISALYLTNCAKGKISKRCTEGGNPAEFLEIVSNSGFLPTEFDYPYFYALVENSCPSGLNKWINLWEDVKLFDYKYEPNSIGSKGYSVYKSEMFKDNMDEYVKMIKSEIKNKGSVIAYINAQSVLTYDFNGKNILNMCGSKTTDHSINVIGYGHYKNKEGEEKSYWLVRNSWGYYWGDEGNFKVDMYGPSNCNYHFINTVLVFNIDIPMMNNNENNKKGLYNYFPKYTHEFYHNFYDQNFGSDNKISLINSNGANKNDVNNAYTVHGQSGETEVQPSQLRSTANQDSNRGAVTSDPLRTQPETTSTSVKKMDVFQVLKHVKNSKIKVGLIKYDNDDEIGAHHSCTRAYSFDPEKYDECVEFCRKNWEQCKDKPSPGFCLTKLDESKGCFFCYV
modifications: bait human Fc-tagged dimer; N-glycosylation sequons mutated in Plasmodium baits
B3: ADP189 (protein)
chain: NNIAHKEDDCGASELAIKKLQELKKFELDILKDFIKKDTDHTDMYKRYHCISSDFLKNTKQEDKKEDNYAKKEDKKDIENSANYIINNKNEKISFINKIISFVGMWNYNKYGNNIQESKNKINIYNNNNNKAENELLYNKEDYTNHIPTNENPNSYMQLSAFNLAKKSMFLGGKDNAAQNFEVGNYGSFYMIFGARNTDYPWACSCDTLQLEEYKEKKRSYVLCSNQLDMSIQNSDLFCNPKN
modifications: bait human Fc-tagged dimer; N-glycosylation sequons mutated in Plasmodium baits

Experiments:
Test in all cases: AVEXIS screen signal:noise (double-corrected)
ADP372 = target: T1, ADP372
ADP150 = target: T2, ADP150
ADP103 = target: T3, ADP103
ADP133 = target: T4, ADP133
ADP315 = target: T5, ADP315
ADP323 = target: ADP323
ADP112 = target: ADP112
ADP110 = target: ADP110

Row | Binder | binding score (ADP372) | binding score (ADP150) | binding score (ADP103) | binding score (ADP133) | binding score (ADP315) | binding score (ADP323) | binding score (ADP112) | binding score (ADP110)
1 | B1 | 5.47 | 8.31 | 10.2 | – | – | – | – | –
2 | B2 | – | – | 7.09 | 6.59 | 5.31 | 7.35 | – | –
3 | B3 | – | – | – | – | – | – | 7.26 | 34.1

— publication PMC11098746 (2024)
